Measurements as given in article PMC3635657 (Biochemical Journal, 2013).

B1: TorD^His (hexahistidine-tagged TorD) (natural protein, E. coli, UniProt P36662 1-199, looked up)
chain: MTTLTAQQIACVYAWLAQLFSRELDDEQLTQIASAQMAEWFSLLKSEPPLTAAVNELENRIATLTVRDDARLELAADFCGLFLMTDKQAALPYASAYKQDEQEIKRLLVEAGMETSGNFNEPADHLAIYLELLSHLHFSLGEGTVPARRIDSLRQKTLTALWQWLPEFVARCRQYDSFGFYAALSQLLLVLVECDHQNR
B2: TorAΔSP (TorA Δ2–39, lacking its entire Tat signal peptide) (domain or fragment, E. coli, UniProt P33225 40-848, looked up)
chain: AQAATDAVISKEGILTGSHWGAIRATVKDGRFVAAKPFELDKYPSKMIAGLPDHVHNAARIRYPMVRVDWLRKRHLSDTSQRGDNRFVRVSWDEALDMFYEELERVQKTHGPSALLTASGWQSTGMFHNASGMLAKAIALHGNSVGTGGDYSTGAAQVILPRVVGSMEVYEQQTSWPLVLQNSKTIVLWGSDLLKNQQANWWCPDHDVYEYYAQLKAKVAAGEIEVISIDPVVTSTHEYLGREHVKHIAVNPQTDVPLQLALAHTLYSENLYDKNFLANYCVGFEQFLPYLLGEKDGQPKDAAWAEKLTGIDAETIRGLARQMAANRTQIIAGWCVQRMQHGEQWAWMIVVLAAMLGQIGLPGGGFGFGWHYNGAGTPGRKGVILSGFSGSTSIPPVHDNSDYKGYSSTIPIARFIDAILEPGKVINWNGKSVKLPPLKMCIFAGTNPFHRHQQINRIIEGLRKLETVIAIDNQWTSTCRFADIVLPATTQFERNDLDQYGNHSNRGIIAMKQVVPPQFEARNDFDIFRELCRRFNREEAFTEGLDEMGWLKRIWQEGVQQGKGRGVHLPAFDDFWNNKEYVEFDHPQMFVRHQAFREDPDLEPLGTPSGLIEIYSKTIADMNYDDCQGHPMWFEKIERSHGGPGSQKYPLHLQSVHPDFRLHSQLCESETLRQQYTVAGKEPVFINPQDASARGIRNGDVVRVFNARGQVLAGAVVSDRYAPGVARIHEGAWYDPDKGGEPGALCKYGNPNVLTIDIGTSQLAQATSAHTTLVEIEKYNGTVEQVTAFNGPVEMVAQCEYVPASQVKS

Columns and labels:
[1] = target: TorA signal peptide signal peptide (Escherichia coli) (UniProt P33225); details: cited from earlier work
[2] = target: TorD^His (hexahistidine-tagged TorD) (E. coli) (UniProt P36662); experiment: SEC-MALS
[3] = target: B2; experiment: pull-down
[4] = target: B1; experiment: SEC-MALS

Molecule: TorD (from UniProt P36662)
- Kd [1]: 59 nM

Molecule: TorA, full-length precursor (trimethylamine N-oxide reductase), cofactor-free (from UniProt P33225 40-848) (natural protein)
- stoichiometry N [2]: 1

Molecule: B1
- binding result [3]: binds

Molecule: B2
- stoichiometry N [4]: 1

B3: TorAΔCT (TorA Δ676–848, lacking its entire C-terminal Domain IV) (domain or fragment, E. coli, UniProt P33225 1-675, looked up)
chain: MNNNDLFQASRRRFLAQLGGLTVAGMLGPSLLTPRRATAAQAATDAVISKEGILTGSHWGAIRATVKDGRFVAAKPFELDKYPSKMIAGLPDHVHNAARIRYPMVRVDWLRKRHLSDTSQRGDNRFVRVSWDEALDMFYEELERVQKTHGPSALLTASGWQSTGMFHNASGMLAKAIALHGNSVGTGGDYSTGAAQVILPRVVGSMEVYEQQTSWPLVLQNSKTIVLWGSDLLKNQQANWWCPDHDVYEYYAQLKAKVAAGEIEVISIDPVVTSTHEYLGREHVKHIAVNPQTDVPLQLALAHTLYSENLYDKNFLANYCVGFEQFLPYLLGEKDGQPKDAAWAEKLTGIDAETIRGLARQMAANRTQIIAGWCVQRMQHGEQWAWMIVVLAAMLGQIGLPGGGFGFGWHYNGAGTPGRKGVILSGFSGSTSIPPVHDNSDYKGYSSTIPIARFIDAILEPGKVINWNGKSVKLPPLKMCIFAGTNPFHRHQQINRIIEGLRKLETVIAIDNQWTSTCRFADIVLPATTQFERNDLDQYGNHSNRGIIAMKQVVPPQFEARNDFDIFRELCRRFNREEAFTEGLDEMGWLKRIWQEGVQQGKGRGVHLPAFDDFWNNKEYVEFDHPQMFVRHQAFREDPDLEPLGTPSGLIEIYSKTIADMNYDDCQGHPMWFEK
- stoichiometry N [4]: 1
